Experimental data: paper PMC9482650, “Quantitative fragmentomics allow affinity mapping of interactomes” (Nature Communications, 2022)

T1: APBA2_2, Q99767
T1 sequence (Q99767 654-744, limits assumed, looked up): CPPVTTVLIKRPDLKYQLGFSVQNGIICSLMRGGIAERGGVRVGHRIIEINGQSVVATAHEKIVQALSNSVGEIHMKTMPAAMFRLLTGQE

T2: RAPGEF6, Q8TEU7
T2 sequence (Q8TEU7 525-625, limits assumed, looked up): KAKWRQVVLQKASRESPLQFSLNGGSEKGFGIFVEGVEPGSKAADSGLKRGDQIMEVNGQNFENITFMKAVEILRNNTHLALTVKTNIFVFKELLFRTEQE

T3: SNTG1, Q9NSN8
T3 sequence (Q9NSN8 52-150, limits assumed, looked up): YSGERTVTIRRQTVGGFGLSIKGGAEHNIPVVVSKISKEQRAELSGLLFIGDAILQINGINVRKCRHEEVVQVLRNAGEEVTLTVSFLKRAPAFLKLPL

T4: LNX2_2, Q8N448
T4 sequence (Q8N448 334-432, limits assumed, looked up): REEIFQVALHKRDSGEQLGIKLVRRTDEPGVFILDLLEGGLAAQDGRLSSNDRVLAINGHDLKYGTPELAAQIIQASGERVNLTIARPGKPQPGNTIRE

T5: MPDZ_12, O75970
T5 sequence (O75970 1857-1958, limits assumed, looked up): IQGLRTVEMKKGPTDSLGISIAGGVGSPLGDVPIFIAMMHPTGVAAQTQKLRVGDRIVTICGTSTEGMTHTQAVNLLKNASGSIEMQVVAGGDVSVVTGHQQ

T6: ARHGAP21, Q5T5U3
T6 sequence (Q5T5U3 45-169, limits assumed, looked up): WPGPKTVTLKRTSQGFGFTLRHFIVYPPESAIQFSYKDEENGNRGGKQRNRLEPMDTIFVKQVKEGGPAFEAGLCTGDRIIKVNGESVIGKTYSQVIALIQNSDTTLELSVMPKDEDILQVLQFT

T7: DFNB31_2, Q9P202
T7 sequence (Q9P202 274-371, limits assumed, looked up): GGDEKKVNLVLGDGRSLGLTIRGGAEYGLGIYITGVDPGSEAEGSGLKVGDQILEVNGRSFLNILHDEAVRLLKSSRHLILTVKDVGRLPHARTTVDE

T8: SNTB1, Q13884
T8 sequence (Q13884 107-205, limits assumed, looked up): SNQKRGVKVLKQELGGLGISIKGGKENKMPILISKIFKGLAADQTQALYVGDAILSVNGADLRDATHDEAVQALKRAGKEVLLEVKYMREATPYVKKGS

T9: CARD11, Q9BXL7
T9 sequence (Q9BXL7 662-765, limits assumed, looked up): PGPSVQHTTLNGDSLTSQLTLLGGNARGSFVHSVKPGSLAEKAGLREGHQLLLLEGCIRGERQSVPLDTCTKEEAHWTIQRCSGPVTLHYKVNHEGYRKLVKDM

T10: DFNB31_3, Q9P202
T10 sequence (Q9P202 811-907, limits assumed, looked up): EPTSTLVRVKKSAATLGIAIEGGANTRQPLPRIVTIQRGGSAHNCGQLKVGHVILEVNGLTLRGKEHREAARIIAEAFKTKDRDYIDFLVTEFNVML

T11: TJP3_3, O95049
T11 sequence (O95049 375-456, limits assumed, looked up): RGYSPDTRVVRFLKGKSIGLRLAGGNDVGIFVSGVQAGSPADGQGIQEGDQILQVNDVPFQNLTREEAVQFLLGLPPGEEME

T12: DFNB31_1, Q9P202
T12 sequence (Q9P202 135-233, limits assumed, looked up): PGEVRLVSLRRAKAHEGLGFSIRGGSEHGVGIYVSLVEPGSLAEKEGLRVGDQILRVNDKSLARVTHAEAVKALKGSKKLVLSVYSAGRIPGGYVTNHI

T13: HTRA3, P83110
T13 sequence (P83110 354-453, limits assumed, looked up): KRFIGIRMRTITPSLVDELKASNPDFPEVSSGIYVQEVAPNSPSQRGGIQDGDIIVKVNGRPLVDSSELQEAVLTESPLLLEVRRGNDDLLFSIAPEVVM

B1: NOSTRIN, Q8IVI9 (peptide)
chain: SNAGNTATKA
B2: SAPCD1, Q5SSQ6 (peptide)
chain: TKGPRGPTRV
B3: SLC45A4, Q5BKX6 (peptide)
chain: QGPVETESVV
B4: SDC4, P31431 (peptide)
chain: KKAPTNEFYA

target: T1, APBA2_2, Q99767; experiment: holdup assay; parameters: key: below the threshold = too weak to quantify, mostly under pKd 3.1 to 4; conditions: plain residues with an end cap or a label only (N-terminal biotin on a linker: ado-ado)

| Binder | pKd |
| --- | --- |
| B1 | below the threshold |
| B2 | below the threshold |
| B3 | below the threshold |
| B4 | below the threshold |

target: SNX27, Q96L92; experiment: holdup assay; parameters: key: below the threshold = too weak to quantify, mostly under pKd 3.1 to 4; conditions: plain residues with an end cap or a label only (N-terminal biotin on a linker: ado-ado)

| Binder | pKd |
| --- | --- |
| B1 | below the threshold |
| B2 | 4 |
| B3 | 5.73 |
| B4 | below the threshold |

target: T2, RAPGEF6, Q8TEU7; experiment: holdup assay; parameters: key: below the threshold = too weak to quantify, mostly under pKd 3.1 to 4; conditions: plain residues with an end cap or a label only (N-terminal biotin on a linker: ado-ado)

| Binder | pKd |
| --- | --- |
| B1 | below the threshold |
| B2 | below the threshold |
| B3 | below the threshold |
| B4 | below the threshold |

target: T3, SNTG1, Q9NSN8; experiment: holdup assay; parameters: key: below the threshold = too weak to quantify, mostly under pKd 3.1 to 4; conditions: plain residues with an end cap or a label only (N-terminal biotin on a linker: ado-ado)

| Binder | pKd |
| --- | --- |
| B1 | below the threshold |
| B2 | below the threshold |
| B3 | 4.75 |
| B4 | below the threshold |

target: T4, LNX2_2, Q8N448; experiment: holdup assay; parameters: key: below the threshold = too weak to quantify, mostly under pKd 3.1 to 4; conditions: plain residues with an end cap or a label only (N-terminal biotin on a linker: ado-ado)

| Binder | pKd |
| --- | --- |
| B1 | 3.56 |
| B2 | 3.87 |
| B3 | 4.31 |
| B4 | below the threshold |

target: FRMPD4, Q14CM0; experiment: holdup assay; parameters: key: below the threshold = too weak to quantify, mostly under pKd 3.1 to 4; conditions: plain residues with an end cap or a label only (N-terminal biotin on a linker: ado-ado)
Sequence (Q14CM0 67-160): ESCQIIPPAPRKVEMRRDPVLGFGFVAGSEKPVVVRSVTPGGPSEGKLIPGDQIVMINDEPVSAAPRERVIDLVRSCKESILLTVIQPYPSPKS

| Binder | pKd |
| --- | --- |
| B1 | below the threshold |
| B2 | below the threshold |
| B3 | below the threshold |
| B4 | 3.49 |

target: T5, MPDZ_12, O75970; experiment: holdup assay; parameters: key: below the threshold = too weak to quantify, mostly under pKd 3.1 to 4; conditions: plain residues with an end cap or a label only (N-terminal biotin on a linker: ado-ado)

| Binder | pKd |
| --- | --- |
| B1 | below the threshold |
| B2 | below the threshold |
| B3 | 3.5 |
| B4 | below the threshold |

target: IL16_3, Q14005; experiment: holdup assay; parameters: key: below the threshold = too weak to quantify, mostly under pKd 3.1 to 4; conditions: plain residues with an end cap or a label only (N-terminal biotin on a linker: ado-ado)
Sequence (Q14005 1107-1207): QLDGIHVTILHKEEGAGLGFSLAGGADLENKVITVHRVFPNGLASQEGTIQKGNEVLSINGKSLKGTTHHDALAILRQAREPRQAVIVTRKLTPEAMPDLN

| Binder | pKd |
| --- | --- |
| B1 | below the threshold |
| B2 | below the threshold |
| B3 | below the threshold |
| B4 | below the threshold |

target: PICK1, Q9NRD5; experiment: holdup assay; parameters: key: below the threshold = too weak to quantify, mostly under pKd 3.1 to 4; conditions: plain residues with an end cap or a label only (N-terminal biotin on a linker: ado-ado)
Sequence (Q9NRD5 17-115): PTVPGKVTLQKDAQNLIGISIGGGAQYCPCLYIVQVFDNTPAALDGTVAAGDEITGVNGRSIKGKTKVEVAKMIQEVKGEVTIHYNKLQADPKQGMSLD

| Binder | pKd |
| --- | --- |
| B1 | below the threshold |
| B2 | 4.11 |
| B3 | below the threshold |
| B4 | below the threshold |

target: Inadl_10, Q8NI35; experiment: holdup assay; parameters: key: below the threshold = too weak to quantify, mostly under pKd 3.1 to 4; conditions: plain residues with an end cap or a label only (N-terminal biotin on a linker: ado-ado)
Sequence (Q8NI35 1673-1763): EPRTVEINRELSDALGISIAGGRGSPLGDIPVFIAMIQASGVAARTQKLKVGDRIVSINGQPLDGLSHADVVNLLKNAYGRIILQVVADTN

| Binder | pKd |
| --- | --- |
| B1 | below the threshold |
| B2 | below the threshold |
| B3 | below the threshold |
| B4 | below the threshold |

target: T6, ARHGAP21, Q5T5U3; experiment: holdup assay; parameters: key: below the threshold = too weak to quantify, mostly under pKd 3.1 to 4; conditions: plain residues with an end cap or a label only (N-terminal biotin on a linker: ado-ado)

| Binder | pKd |
| --- | --- |
| B1 | below the threshold |
| B2 | below the threshold |
| B3 | 4.14 |
| B4 | below the threshold |

target: T7, DFNB31_2, Q9P202; experiment: holdup assay; parameters: key: below the threshold = too weak to quantify, mostly under pKd 3.1 to 4; conditions: plain residues with an end cap or a label only (N-terminal biotin on a linker: ado-ado)

| Binder | pKd |
| --- | --- |
| B1 | below the threshold |
| B2 | below the threshold |
| B3 | below the threshold |
| B4 | below the threshold |

target: Inadl_4, Q8NI35; experiment: holdup assay; parameters: key: below the threshold = too weak to quantify, mostly under pKd 3.1 to 4; conditions: plain residues with an end cap or a label only (N-terminal biotin on a linker: ado-ado)
Sequence (Q8NI35 547-651): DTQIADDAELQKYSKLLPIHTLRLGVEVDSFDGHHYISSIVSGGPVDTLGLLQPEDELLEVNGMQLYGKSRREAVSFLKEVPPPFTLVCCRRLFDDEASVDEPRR

| Binder | pKd |
| --- | --- |
| B1 | below the threshold |
| B2 | below the threshold |
| B3 | 3.63 |
| B4 | below the threshold |

target: T8, SNTB1, Q13884; experiment: holdup assay; parameters: key: below the threshold = too weak to quantify, mostly under pKd 3.1 to 4; conditions: plain residues with an end cap or a label only (N-terminal biotin on a linker: ado-ado)

| Binder | pKd |
| --- | --- |
| B1 | below the threshold |
| B2 | 4.46 |
| B3 | 4.94 |
| B4 | below the threshold |

target: NHERF4_2, Q86UT5; experiment: holdup assay; parameters: key: below the threshold = too weak to quantify, mostly under pKd 3.1 to 4; conditions: plain residues with an end cap or a label only (N-terminal biotin on a linker: ado-ado)
Sequence (Q86UT5 220-308): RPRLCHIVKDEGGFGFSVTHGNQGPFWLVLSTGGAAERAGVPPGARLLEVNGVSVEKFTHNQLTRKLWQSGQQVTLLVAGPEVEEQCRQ

| Binder | pKd |
| --- | --- |
| B1 | below the threshold |
| B2 | below the threshold |
| B3 | below the threshold |
| B4 | below the threshold |

target: T9, CARD11, Q9BXL7; experiment: holdup assay; parameters: key: below the threshold = too weak to quantify, mostly under pKd 3.1 to 4; conditions: plain residues with an end cap or a label only (N-terminal biotin on a linker: ado-ado)

| Binder | pKd |
| --- | --- |
| B1 | below the threshold |
| B2 | below the threshold |
| B3 | below the threshold |
| B4 | below the threshold |

target: NOS1, P29475; experiment: holdup assay; parameters: key: below the threshold = too weak to quantify, mostly under pKd 3.1 to 4; conditions: plain residues with an end cap or a label only (N-terminal biotin on a linker: ado-ado)
Sequence (P29475 9-101): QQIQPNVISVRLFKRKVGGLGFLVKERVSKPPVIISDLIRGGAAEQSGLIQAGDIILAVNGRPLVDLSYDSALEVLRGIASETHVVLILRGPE

| Binder | pKd |
| --- | --- |
| B1 | below the threshold |
| B2 | 4.2 |
| B3 | 3.85 |
| B4 | below the threshold |

target: SCRIB_1, Q14160; experiment: holdup assay; parameters: key: below the threshold = too weak to quantify, mostly under pKd 3.1 to 4; conditions: plain residues with an end cap or a label only (N-terminal biotin on a linker: ado-ado)
Sequence (Q14160 718-814): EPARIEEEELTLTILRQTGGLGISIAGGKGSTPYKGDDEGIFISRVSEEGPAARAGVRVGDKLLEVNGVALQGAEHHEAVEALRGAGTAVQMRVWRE

| Binder | pKd |
| --- | --- |
| B1 | below the threshold |
| B2 | 3.7 |
| B3 | 3.72 |
| B4 | below the threshold |

target: T10, DFNB31_3, Q9P202; experiment: holdup assay; parameters: key: below the threshold = too weak to quantify, mostly under pKd 3.1 to 4; conditions: plain residues with an end cap or a label only (N-terminal biotin on a linker: ado-ado)

| Binder | pKd |
| --- | --- |
| B1 | below the threshold |
| B2 | below the threshold |
| B3 | below the threshold |
| B4 | 3.85 |

target: T11, TJP3_3, O95049; experiment: holdup assay; parameters: key: below the threshold = too weak to quantify, mostly under pKd 3.1 to 4; conditions: plain residues with an end cap or a label only (N-terminal biotin on a linker: ado-ado)

| Binder | pKd |
| --- | --- |
| B1 | below the threshold |
| B2 | below the threshold |
| B3 | 3.59 |
| B4 | below the threshold |

target: T12, DFNB31_1, Q9P202; experiment: holdup assay; parameters: key: below the threshold = too weak to quantify, mostly under pKd 3.1 to 4; conditions: plain residues with an end cap or a label only (N-terminal biotin on a linker: ado-ado)

| Binder | pKd |
| --- | --- |
| B1 | below the threshold |
| B2 | 3.52 |
| B3 | 3.66 |
| B4 | below the threshold |

target: MAGI2_6, Q86UL8; experiment: holdup assay; parameters: key: below the threshold = too weak to quantify, mostly under pKd 3.1 to 4; conditions: plain residues with an end cap or a label only (N-terminal biotin on a linker: ado-ado)
Sequence (Q86UL8 1141-1229): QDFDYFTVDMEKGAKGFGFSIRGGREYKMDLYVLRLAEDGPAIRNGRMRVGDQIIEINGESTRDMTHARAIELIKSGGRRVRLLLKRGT

| Binder | pKd |
| --- | --- |
| B1 | below the threshold |
| B2 | below the threshold |
| B3 | 3.55 |
| B4 | below the threshold |

target: PTPN3, P26045; experiment: holdup assay; parameters: key: below the threshold = too weak to quantify, mostly under pKd 3.1 to 4; conditions: plain residues with an end cap or a label only (N-terminal biotin on a linker: ado-ado)
Sequence (P26045 505-587): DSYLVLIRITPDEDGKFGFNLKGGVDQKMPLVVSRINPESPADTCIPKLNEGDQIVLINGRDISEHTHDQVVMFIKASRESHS

| Binder | pKd |
| --- | --- |
| B1 | 3.87 |
| B2 | below the threshold |
| B3 | 4.66 |
| B4 | 4.02 |

target: T13, HTRA3, P83110; experiment: holdup assay; parameters: key: below the threshold = too weak to quantify, mostly under pKd 3.1 to 4; conditions: plain residues with an end cap or a label only (N-terminal biotin on a linker: ado-ado)

| Binder | pKd |
| --- | --- |
| B1 | below the threshold |
| B2 | below the threshold |
| B3 | below the threshold |
| B4 | 4.38 |

target: GIPC2, Q8TF65; experiment: holdup assay; parameters: key: below the threshold = too weak to quantify, mostly under pKd 3.1 to 4; conditions: plain residues with an end cap or a label only (N-terminal biotin on a linker: ado-ado)
Sequence (Q8TF65 112-203): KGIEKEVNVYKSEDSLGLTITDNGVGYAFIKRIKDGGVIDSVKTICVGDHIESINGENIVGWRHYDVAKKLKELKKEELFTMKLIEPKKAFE

| Binder | pKd |
| --- | --- |
| B1 | below the threshold |
| B2 | below the threshold |
| B3 | 4.37 |
| B4 | below the threshold |
